Data published in PMC8190030.

Assays:
Settings in all cases: remark: other sources report otherwise
[1] = target: T1, N- (neural) cadherin of human fibroblasts (human (endogenous in primary fibroblasts)), P19022; experiment: AFM single-cell force spectroscopy; as a1, approach and retract velocity 5 µm/sec
T1 chain: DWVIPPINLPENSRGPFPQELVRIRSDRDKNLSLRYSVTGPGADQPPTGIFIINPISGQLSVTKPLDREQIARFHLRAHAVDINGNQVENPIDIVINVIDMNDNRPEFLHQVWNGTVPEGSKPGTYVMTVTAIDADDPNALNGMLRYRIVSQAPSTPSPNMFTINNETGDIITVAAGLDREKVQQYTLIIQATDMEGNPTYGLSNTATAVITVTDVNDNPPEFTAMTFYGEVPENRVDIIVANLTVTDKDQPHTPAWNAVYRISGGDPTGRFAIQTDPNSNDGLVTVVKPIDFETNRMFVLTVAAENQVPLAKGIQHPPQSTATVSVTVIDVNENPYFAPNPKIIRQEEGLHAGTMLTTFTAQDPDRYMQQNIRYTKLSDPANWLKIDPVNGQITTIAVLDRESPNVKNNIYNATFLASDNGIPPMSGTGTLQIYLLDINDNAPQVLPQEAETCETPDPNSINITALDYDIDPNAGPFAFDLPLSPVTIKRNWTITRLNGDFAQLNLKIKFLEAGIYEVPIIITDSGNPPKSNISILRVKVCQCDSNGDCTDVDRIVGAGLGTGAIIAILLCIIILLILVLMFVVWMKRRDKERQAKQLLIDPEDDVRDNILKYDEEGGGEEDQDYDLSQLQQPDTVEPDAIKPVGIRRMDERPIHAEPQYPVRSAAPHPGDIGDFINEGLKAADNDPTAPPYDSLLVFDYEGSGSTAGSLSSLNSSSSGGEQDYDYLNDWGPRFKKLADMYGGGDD

[2] = target: T1, N- (neural) cadherin of human …; experiment: AFM single-cell force spectroscopy; as a1, approach and retract velocity 10 µm/sec
[3] = target: T1, N- (neural) cadherin of human …; experiment: AFM single-cell force spectroscopy; as a1, approach and retract velocity 7.5 µm/sec
[4] = target: T1, N- (neural) cadherin of human …; experiment: AFM single-cell force spectroscopy; DMSO control of the drug series; cell on cantilever against cell monolayer
[5] = target: T1, N- (neural) cadherin of human …; experiment: as above
[6] = target: T1, N- (neural) cadherin of human …; experiment: AFM single-cell force spectroscopy; with 5 µM ML-7 (myosin light chain kinase inhibited); cell on cantilever against cell monolayer
[7] = target: T1, N- (neural) cadherin of human …; experiment: AFM single-cell force spectroscopy; with 5 µM cytochalasin D (actin filaments disassembled); cell on cantilever against cell monolayer
[8] = target: T1, N- (neural) cadherin of human …; experiment: AFM single-cell force spectroscopy; control of the drug series (no drug and no DMSO); cell on cantilever against cell monolayer; velocity not stated for this series
[9] = target: T1, N- (neural) cadherin of human …; experiment: as above
[10] = target: T1, N- (neural) cadherin of human …; experiment: AFM single-cell force spectroscopy; living cell on a conA-coated tipless cantilever against a cell monolayer in a Petri dish; approach and retract velocity 3 µm/sec, maximum loading force 3 nN, contact time 2 s; 5% CO2; cadherin type assigned from immunofluorescence

median rupture force (NF–NF cells) [1]: 73.4 pN
median rupture force (SF–SF cells) [1]: 74.2 pN
median rupture force (NF–NF cells) [2]: 117 pN
median rupture force (SF–SF cells) [2]: 129 pN
median rupture force (NF–NF cells) [3]: 97.2 pN
median rupture force (SF–SF cells) [3]: 103 pN
median rupture force (NF–NF cells) [4]: 60.2 pN
median rupture force (SF–SF cells) [4]: 48.3 pN
median rupture force (NF–NF cells) [5]: 52 pN
median rupture force (SF–SF cells) [5]: 53.1 pN
median rupture force (NF–NF cells) [6]: 48.9 pN
median rupture force (SF–SF cells) [6]: 49 pN
median rupture force (NF–NF cells) [7]: 31.1 pN
median rupture force (SF–SF cells) [7]: 30.5 pN
median rupture force (NF–NF cells) [8]: 61.9 pN
median rupture force (SF–SF cells) [8]: 58.4 pN
median rupture force (NF–NF cells) [9]: 58.8 pN
median rupture force (SF–SF cells) [9]: 66.2 pN
median rupture force (NF–NF cells) [10]: 51.9 pN
median rupture force (SF–SF cells) [10]: 45.2 pN
B1: N- (neural) cadherin of human fibroblasts, P19022 160-906 (natural protein)
chain: DWVIPPINLPENSRGPFPQELVRIRSDRDKNLSLRYSVTGPGADQPPTGIFIINPISGQLSVTKPLDREQIARFHLRAHAVDINGNQVENPIDIVINVIDMNDNRPEFLHQVWNGTVPEGSKPGTYVMTVTAIDADDPNALNGMLRYRIVSQAPSTPSPNMFTINNETGDIITVAAGLDREKVQQYTLIIQATDMEGNPTYGLSNTATAVITVTDVNDNPPEFTAMTFYGEVPENRVDIIVANLTVTDKDQPHTPAWNAVYRISGGDPTGRFAIQTDPNSNDGLVTVVKPIDFETNRMFVLTVAAENQVPLAKGIQHPPQSTATVSVTVIDVNENPYFAPNPKIIRQEEGLHAGTMLTTFTAQDPDRYMQQNIRYTKLSDPANWLKIDPVNGQITTIAVLDRESPNVKNNIYNATFLASDNGIPPMSGTGTLQIYLLDINDNAPQVLPQEAETCETPDPNSINITALDYDIDPNAGPFAFDLPLSPVTIKRNWTITRLNGDFAQLNLKIKFLEAGIYEVPIIITDSGNPPKSNISILRVKVCQCDSNGDCTDVDRIVGAGLGTGAIIAILLCIIILLILVLMFVVWMKRRDKERQAKQLLIDPEDDVRDNILKYDEEGGGEEDQDYDLSQLQQPDTVEPDAIKPVGIRRMDERPIHAEPQYPVRSAAPHPGDIGDFINEGLKAADNDPTAPPYDSLLVFDYEGSGSTAGSLSSLNSSSSGGEQDYDYLNDWGPRFKKLADMYGGGDD
